Source: patent publication US20260193293A1, “PEPTIDES CAPABLE OF INHIBITING PROTEIN-PROTEIN INTERACTIONS AT GABAB1A SUBUNIT AND USES THEREOF” (UNIVERSITY OF COPENHAGEN, priority 2022, published 2026)
Starred links: 1 amine or outer side, 2 acyl side, 3 side chain; linkers in the order of their positions; H or OH if unused. Non-standard residues stand in square brackets, D forms with d. Tyr(Bzl) = Obtyr, O-benzyl-L-tyrosine, O=C([C@H](Cc1ccc(OCc2ccccc2)cc1)N[*:1])[*:2]; Tyr(Me) = Omtyr, O-methyl-L-tyrosine, COc1ccc(C[C@H](N[*:1])C(=O)[*:2])cc1; Phe(4-tBu) = CC(C)(C)c1ccc(C[C@H](N)C(=O)O)cc1; Phe(4-NH2) = Nc1ccc(C[C@H](N)C(=O)O)cc1; Phe(4-F) = N[C@@H](Cc1ccc(F)cc1)C(=O)O; 1Nal = N[C@@H](Cc1cccc2ccccc12)C(=O)O; 2Nal = N[C@@H](Cc1ccc2ccccc2c1)C(=O)O; 3Pal = N[C@@H](Cc1cccnc1)C(=O)O; 4Pal = N[C@@H](Cc1ccncc1)C(=O)O

B1: RRRR(2Nala)… (peptide)
peptide: Ac-RRRR[2Nal]EDSDDYDDIDDDW-NH2
SMILES: CC[C@H](C)[C@H](NC(=O)[C@H](CC(=O)O)NC(=O)[C@H](CC(=O)O)NC(=O)[C@H](Cc1ccc(O)cc1)NC(=O)[C@H](CC(=O)O)NC(=O)[C@H](CC(=O)O)NC(=O)[C@H](CO)NC(=O)[C@H](CC(=O)O)NC(=O)[C@H](CCC(=O)O)NC(=O)[C@H](Cc1ccc2ccccc2c1)NC(=O)[C@H](CCCNC(=N)N)NC(=O)[C@H](CCCNC(=N)N)NC(=O)[C@H](CCCNC(=N)N)NC(=O)[C@H](CCCNC(=N)N)NC(C)=O)C(=O)N[C@@H](CC(=O)O)C(=O)N[C@@H](CC(=O)O)C(=O)N[C@@H](CC(=O)O)C(=O)N[C@@H](Cc1c[nH]c2ccccc12)C(N)=O
B2: R4-20 (peptide)
peptide: Ac-RRRREDDD[2Nal]IDWYDSDDD-NH2
SMILES: CC[C@H](C)[C@H](NC(=O)[C@H](Cc1ccc2ccccc2c1)NC(=O)[C@H](CC(=O)O)NC(=O)[C@H](CC(=O)O)NC(=O)[C@H](CC(=O)O)NC(=O)[C@H](CCC(=O)O)NC(=O)[C@H](CCCNC(=N)N)NC(=O)[C@H](CCCNC(=N)N)NC(=O)[C@H](CCCNC(=N)N)NC(=O)[C@H](CCCNC(=N)N)NC(C)=O)C(=O)N[C@@H](CC(=O)O)C(=O)N[C@@H](Cc1c[nH]c2ccccc12)C(=O)N[C@@H](Cc1ccc(O)cc1)C(=O)N[C@@H](CC(=O)O)C(=O)N[C@@H](CO)C(=O)N[C@@H](CC(=O)O)C(=O)N[C@@H](CC(=O)O)C(=O)N[C@@H](CC(=O)O)C(N)=O
B3: EDDSDVW(1Nala)GGADTD (peptide)
peptide: Ac-EDDSDVW[1Nal]GGADTD-NH2
SMILES: CC(=O)N[C@@H](CCC(=O)O)C(=O)N[C@@H](CC(=O)O)C(=O)N[C@@H](CC(=O)O)C(=O)N[C@@H](CO)C(=O)N[C@@H](CC(=O)O)C(=O)N[C@H](C(=O)N[C@@H](Cc1c[nH]c2ccccc12)C(=O)N[C@@H](Cc1cccc2ccccc12)C(=O)NCC(=O)NCC(=O)N[C@@H](C)C(=O)N[C@@H](CC(=O)O)C(=O)N[C@H](C(=O)N[C@@H](CC(=O)O)C(N)=O)[C@@H](C)O)C(C)C
B4: EDDSDVW(2Nala)GGADTD (peptide)
peptide: Ac-EDDSDVW[2Nal]GGADTD-NH2
SMILES: CC(=O)N[C@@H](CCC(=O)O)C(=O)N[C@@H](CC(=O)O)C(=O)N[C@@H](CC(=O)O)C(=O)N[C@@H](CO)C(=O)N[C@@H](CC(=O)O)C(=O)N[C@H](C(=O)N[C@@H](Cc1c[nH]c2ccccc12)C(=O)N[C@@H](Cc1ccc2ccccc2c1)C(=O)NCC(=O)NCC(=O)N[C@@H](C)C(=O)N[C@@H](CC(=O)O)C(=O)N[C@H](C(=O)N[C@@H](CC(=O)O)C(N)=O)[C@@H](C)O)C(C)C
B5: EDDS(4Pal)… (peptide)
peptide: Ac-EDDS[4Pal]VWWGGADTD-NH2
SMILES: CC(=O)N[C@@H](CCC(=O)O)C(=O)N[C@@H](CC(=O)O)C(=O)N[C@@H](CC(=O)O)C(=O)N[C@@H](CO)C(=O)N[C@@H](Cc1ccncc1)C(=O)N[C@H](C(=O)N[C@@H](Cc1c[nH]c2ccccc12)C(=O)N[C@@H](Cc1c[nH]c2ccccc12)C(=O)NCC(=O)NCC(=O)N[C@@H](C)C(=O)N[C@@H](CC(=O)O)C(=O)N[C@H](C(=O)N[C@@H](CC(=O)O)C(N)=O)[C@@H](C)O)C(C)C
B6: EDDS(1Nala)… (peptide)
peptide: Ac-EDDS[1Nal]VWWGGADTD-NH2
SMILES: CC(=O)N[C@@H](CCC(=O)O)C(=O)N[C@@H](CC(=O)O)C(=O)N[C@@H](CC(=O)O)C(=O)N[C@@H](CO)C(=O)N[C@@H](Cc1cccc2ccccc12)C(=O)N[C@H](C(=O)N[C@@H](Cc1c[nH]c2ccccc12)C(=O)N[C@@H](Cc1c[nH]c2ccccc12)C(=O)NCC(=O)NCC(=O)N[C@@H](C)C(=O)N[C@@H](CC(=O)O)C(=O)N[C@H](C(=O)N[C@@H](CC(=O)O)C(N)=O)[C@@H](C)O)C(C)C
B7: EDDS(Omtyr)… (peptide)
peptide: Ac-EDDS[Tyr(Me)]VWWGGADTD-NH2
SMILES: COc1ccc(C[C@H](NC(=O)[C@H](CO)NC(=O)[C@H](CC(=O)O)NC(=O)[C@H](CC(=O)O)NC(=O)[C@H](CCC(=O)O)NC(C)=O)C(=O)N[C@H](C(=O)N[C@@H](Cc2c[nH]c3ccccc23)C(=O)N[C@@H](Cc2c[nH]c3ccccc23)C(=O)NCC(=O)NCC(=O)N[C@@H](C)C(=O)N[C@@H](CC(=O)O)C(=O)N[C@H](C(=O)N[C@@H](CC(=O)O)C(N)=O)[C@@H](C)O)C(C)C)cc1
B8: EDDS(3Pal)… (peptide)
peptide: Ac-EDDS[3Pal]VWWGGADTD-NH2
SMILES: CC(=O)N[C@@H](CCC(=O)O)C(=O)N[C@@H](CC(=O)O)C(=O)N[C@@H](CC(=O)O)C(=O)N[C@@H](CO)C(=O)N[C@@H](Cc1cccnc1)C(=O)N[C@H](C(=O)N[C@@H](Cc1c[nH]c2ccccc12)C(=O)N[C@@H](Cc1c[nH]c2ccccc12)C(=O)NCC(=O)NCC(=O)N[C@@H](C)C(=O)N[C@@H](CC(=O)O)C(=O)N[C@H](C(=O)N[C@@H](CC(=O)O)C(N)=O)[C@@H](C)O)C(C)C
B9: EDDSDVW(Obtyr)GGADTD (peptide)
peptide: Ac-EDDSDVW[Tyr(Bzl)]GGADTD-NH2
SMILES: CC(=O)N[C@@H](CCC(=O)O)C(=O)N[C@@H](CC(=O)O)C(=O)N[C@@H](CC(=O)O)C(=O)N[C@@H](CO)C(=O)N[C@@H](CC(=O)O)C(=O)N[C@H](C(=O)N[C@@H](Cc1c[nH]c2ccccc12)C(=O)N[C@@H](Cc1ccc(OCc2ccccc2)cc1)C(=O)NCC(=O)NCC(=O)N[C@@H](C)C(=O)N[C@@H](CC(=O)O)C(=O)N[C@H](C(=O)N[C@@H](CC(=O)O)C(N)=O)[C@@H](C)O)C(C)C
B10: R4-21 (peptide)
peptide: Ac-RRRREDDD[2Nal]IDWGPTSDDD-NH2
SMILES: CC[C@H](C)[C@H](NC(=O)[C@H](Cc1ccc2ccccc2c1)NC(=O)[C@H](CC(=O)O)NC(=O)[C@H](CC(=O)O)NC(=O)[C@H](CC(=O)O)NC(=O)[C@H](CCC(=O)O)NC(=O)[C@H](CCCNC(=N)N)NC(=O)[C@H](CCCNC(=N)N)NC(=O)[C@H](CCCNC(=N)N)NC(=O)[C@H](CCCNC(=N)N)NC(C)=O)C(=O)N[C@@H](CC(=O)O)C(=O)N[C@@H](Cc1c[nH]c2ccccc12)C(=O)NCC(=O)N1CCC[C@H]1C(=O)N[C@H](C(=O)N[C@@H](CO)C(=O)N[C@@H](CC(=O)O)C(=O)N[C@@H](CC(=O)O)C(=O)N[C@@H](CC(=O)O)C(N)=O)[C@@H](C)O

molecular target: Sushi domains (SD1/2) protein of GABAB1a (GB1a); experiment: FP competition vs TAMRA AJAP-1probe
Sequence (Q9Z0U4 29-158): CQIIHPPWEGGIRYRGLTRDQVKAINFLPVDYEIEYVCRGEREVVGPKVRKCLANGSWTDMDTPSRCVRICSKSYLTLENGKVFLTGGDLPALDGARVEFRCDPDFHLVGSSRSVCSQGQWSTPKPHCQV

Which Ki does the source give for Ac-RRREDDDWIDWGPTSDDD-NH2 [R3-17] here?
Its Ki is 9 nM.

For Ac-EDDS[Phe(4-tBu)]VWWGGADTD-NH2 [EDDS(Buphe)…], which Ki is on record?
Its Ki is 269 nM.

B1 was tested. Which Ki did it give?
The Ki was 143000 nM.

How did the Ki turn out when Ac-RRRRREDDDWIDWGPTSDDD-NH2 […] was run?
The Ki was 32 nM.

With B2 as the binder, how does the Ki read?
The Ki was 15 nM.

With B3 as the binder, how does the Ki read?
The Ki was 499 nM.

How did the Ki turn out when B4 was run?
Its Ki is 814 nM.

How did the Ki turn out when Ac-RRRREDDDWIDWGPTSDDD-NH2 [4R-17] was run?
Its Ki is 15 nM.

For B5, which Ki is on record?
Its Ki is 424 nM.

For B6, which Ki is on record?
The Ki was 69 nM.

Which Ki does the source give for B7 here?
Its Ki is 101 nM.

How did the Ki turn out when Ac-EDDS[Phe(4-F)]VWWGGADTD-NH2 [EDDS(Fphe)…] was run?
Its Ki is 117 nM.

For Ac-EDDS[Phe(4-NH2)]VWWGGADTD-NH2 [EDDS(Aphe)…], which Ki is on record?
Its Ki is 184 nM.

Which Ki does the source give for B8 here?
Its Ki is 373 nM.

B9 was tested. Which Ki did it give?
The Ki was 3860 nM.

For B10, which Ki is on record?
The Ki was 13 nM.
